Source: US9803013B2, “Biological materials and uses thereof” (BioInvent International AB, priority 2005, dated 2017)

T1: ICAM-3 (Homo sapiens, UniProt P32942)
T1 sequence (P32942 30-547): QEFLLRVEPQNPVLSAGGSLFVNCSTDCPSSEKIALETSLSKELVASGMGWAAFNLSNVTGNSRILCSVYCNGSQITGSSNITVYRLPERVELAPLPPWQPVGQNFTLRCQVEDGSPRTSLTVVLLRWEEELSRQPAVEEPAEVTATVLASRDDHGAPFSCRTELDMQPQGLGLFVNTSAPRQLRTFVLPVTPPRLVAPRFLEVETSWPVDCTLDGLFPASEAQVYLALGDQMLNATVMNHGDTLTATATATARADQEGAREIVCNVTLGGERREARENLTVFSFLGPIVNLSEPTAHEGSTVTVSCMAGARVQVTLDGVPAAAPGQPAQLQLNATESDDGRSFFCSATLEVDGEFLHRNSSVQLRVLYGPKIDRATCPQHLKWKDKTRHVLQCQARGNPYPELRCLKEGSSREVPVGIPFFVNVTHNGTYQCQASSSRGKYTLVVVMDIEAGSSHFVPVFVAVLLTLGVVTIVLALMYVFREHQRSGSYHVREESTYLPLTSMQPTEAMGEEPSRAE

B1: C11: fully human IgG1 antibody specific for surface IgM; VH and VL sequences of FIG. 11 (SEQ ID NOs. 10 and 12) (antibody, listed as Homo sapiens, V domains shown)
VH: EVQLLESGGGLVQPGGSLRLSCAASGFTFGSYEMNWVRQAPGKGLEWVSVIYSGGSTYYADSVEGRFTISRDNSKNTLYLQMNSLRAEDTAVYYCARDTNPYYYYGMDVWGQGTLVTVSS
VL: QSVLTQPPSASGTPGQRVTISCSGSSSNIGNNAVNWYQQLPGTAPKLLIYRNNQRPSGVPDRFSGSKSGTSASLAISGLRSEDEADYYCQSYDSSLNGQVFGGGTKLTVLG
B2: B11: fully human IgG1 antibody specific for ICAM-1; VH and VL sequences of FIG. 10 (SEQ ID NOs. 6 and 8) (antibody, listed as Homo sapiens, V domains shown)
VH: EVQLLESGGGLVQPGGSLRLSCAASGFTFSNAWMSWVRQAPGKGLEWVAFIWYDGSNKYYADSVKGRFTISRDNSKNTLYLQMNSLRAEDTAVYYCARYSGWYFDYWGQGTLVTVSS
VL: QSVLTQPPSASGTPGQRVTISCTGSSSNIGAGYDVHWYQQLPGTAPKLLIYDNNNRPSGVPDRFSGSKSGTSASLAISGLRSEDEADYYCQSYDSSLSAWLFGGGTKLTVLG

Key:
[1] = test system: carcinoma cell lines initially tested; test: IgG binding to tumour cell lines, flow cytometry; parameters: species or system human; conditions: all carcinoma cell lines initially tested
From the text: FIG. 6—Binding of B1, B11, C11 IgG, to tumour cell lines of different origin. The antigen distribution of antigens targeted by the B1, B11, and C11 antibodies on different carcinoma cell lines was investigated by flow-cytometry.
The antigen distribution of human antibody targeted antigens, mainly for B11, on different carcinoma cell lines was investigated. Cells (MCF-7 and MDA MB 435S breast carcinoma, JAR and JEG-3 chorio-carcinoma, A549 lung carcinoma, TCC-SUP urinary bladder carcinoma, MDA MB 435 melanoma, HPAC, PANC-1 and BxPC-3 pancreatic carcinoma, PC-3 and DU145 prostate carcinoma, LS174 T, CaCo2, and Lovo colorectal carcinoma, and THP-1 monocytic leukaemia cells), were washed in PBS, and resuspended at 4×10^6 cells/ml in Complete Medium (200,000 cells/50 […] sample). […] Cells were incubated with either of the antibodies for 1 hour on ice, washed by resuspension in PBS/BSA 0.5%, centrifuged at 1200 rpm for 5 min, and complete aspiration of the supernatants was undertaken. Cells were incubated with PE-conjugated Goat F(ab′)2 anti-Human IgG (Caltag Laboratories, Cat no: H10104), diluted 1/50 in PBS/BSA 0.5%, for 30 min, on ice. Following resuspension of in 300 μl PBS/BSA 0.5%, cells were analysed for IgG binding using a FACScan instrument.

[2] = Limited safety studies in rat, rabbit and monkey; type: in vivo
B lymphoma tissue = test: Immunohistochemistry on cryopreserved lymph node biopsies; type: binding, human; parameters: key: Increasing numbers of + indicate stronger staining.; ++: Increasing numbers of + indicate stronger staining.; +++: Increasing numbers of + indicate stronger staining
Description: Cryopreserved lymph node biopsies of patients with Anaplastic Large Cell B lymphoma (one patient), Centroblastic/Centrocytic B non-Hodgkin lymphoma (three patients), and B cell chronic lymphocytic leukaemia (one patient) were obtained from the Department of Pathology at Lund University (Lund, Sweden). Eight-micrometer sections of cryo-preserved tissue were fixed in acetone for 10 min at 4° C. Endogenous biotin-binding activity was blocked by sequential treatment with Avidin and Biotin (Avidin/Biotin blocking kit, Invitrogen) for 20 min each.
Tissues were incubated with 5 μg/ml control scFv or B11 scFv for 1 h. Following washing, sections were incubated with biotin-conjugated mouse anti-His mAb (R&D Systems) for 30 min. scFv binding was detected following treatment with ABC Complex/HRP reagent (Dako Cytomation) for 30 min, and subsequent incubation with DAB for 5 min.
Sections were photographed using a Leica DC 300F digital camera mounted on top of a Leica DMR light/fluorescence microscope.

ICAM-1 = ICAM-1 (Homo sapiens, UniProt P05362); test: Binding to recombinant ICAM-1 (ELISA)
Sequence of ICAM-1 (P05362 28-532): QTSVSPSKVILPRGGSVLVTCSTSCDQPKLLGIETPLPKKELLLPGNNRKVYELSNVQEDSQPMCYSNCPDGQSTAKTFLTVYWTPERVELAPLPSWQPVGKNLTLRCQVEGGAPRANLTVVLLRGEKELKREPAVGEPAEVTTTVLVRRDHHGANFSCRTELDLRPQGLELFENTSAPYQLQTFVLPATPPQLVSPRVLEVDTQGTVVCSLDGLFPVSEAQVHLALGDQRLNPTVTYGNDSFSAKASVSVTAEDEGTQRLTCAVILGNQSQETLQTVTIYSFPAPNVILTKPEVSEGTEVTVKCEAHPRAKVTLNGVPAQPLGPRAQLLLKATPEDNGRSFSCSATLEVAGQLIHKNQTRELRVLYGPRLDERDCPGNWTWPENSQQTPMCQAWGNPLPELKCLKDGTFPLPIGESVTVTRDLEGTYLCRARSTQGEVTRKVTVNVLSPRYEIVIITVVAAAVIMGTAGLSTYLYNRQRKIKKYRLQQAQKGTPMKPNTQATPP
Description: FIG. 12C BI-505 binds specifically to ICAM-1. (a) Pre-incubation with recombinant ICAM-1, but not VCAM, blocks BI-505 binding to targeted tumor B cells.
(FIG. 21A) BI-505 IgG1, IgG4 and IgG1 N297Q antibodies were analyzed for binding to recombinant ICAM-1 by ELISA.

monocyte cells = test: Flow-cytometric IgG binding, Ramos cells mixed with peripheral blood leukocytes; parameters: species or system human
From the text: (§1) Washing was repeated twice.

[3] = test system: other monitored peripheral blood leukocyte subsets; test: as above; parameters: species or system human
From the text: as §1

[4] = test system: peripheral blood B lymphocytes; test: as above; parameters: species or system human
From the text: as §1

Ramos cells = test: as above; parameters: species or system human
From the text: as §1

human target tumor cells = test: ADCC with human effector NK cells; type: cell-based
Description: NK cells were isolated from purified PBMCs using positive or negative NK cell-isolation kits (Miltenyi Biotec). Target cells were harvested and incubated in medium with or without the respective antibodies (2 μg/mL) for 60 min on ice before. NK cells were washed, diluted in ADCC medium and dispensed together with the respective antibody-coated target cells at varying effector/target cell ratios. All experiments were performed in triplicate. After incubation, TO-PRO-3 dye and counting beads (Invitrogen) were added and cells were analyzed for membrane permeabilization using flow cytometry.
Buffy coats from human donors (ordered through Blodcentralen, Lund) were used to isolate peripheral blood mononuclear cells (PBMCs), and subsequently natural killer (NK) cells. Briefly, peripheral blood components were separated using Ficoll-Paque PLUS (Amersham Biosciences, Sweden) in Leucosep tubes (Greiner Bio-One). […] The purity of the obtained NK cell fractions was >75% as determined by flow cytometry after staining with α-CD56 antibodies (BD Biosciences). […] After incubation, TO-PRO-3 dye and counting beads (Invitrogen) were added and cells were analyzed for membrane permeabilization using flow cytometry.

ICAM-3 = molecular target: T1, ICAM-3; test: Binding to recombinant ICAM family protein

| Molecule | binding [1] | toxicity [2] | Staining of B lymphoma tissue (B lymphoma tissue; Patient A, B-CLL (low malignant non-Hodgkin Lymphoma)) | Staining of B lymphoma tissue (B lymphoma tissue; Patient B, Anaplastic Large Cell B Cell Lymphoma) | Staining of B lymphoma tissue (B lymphoma tissue; Patient D, B-CLL/B-PLL) | Staining of B lymphoma tissue (B lymphoma tissue; Patient F, Centroblastic-Centrocytic B non-Hodgkin Lymphoma) | binding to recombinant protein (ICAM-1) | MFI (monocyte cells) | binding [3] | MFI [4] | MFI (Ramos cells) | concentration at which binding peaked (Ramos cells) | ADCC (human target tumor cells) | binding to recombinant protein (ICAM-3) |
| --- | --- | --- | --- | --- | --- | --- | --- | --- | --- | --- | --- | --- | --- | --- |
| B1 | lack of binding | – | – | – | – | – | – | – | – | – | – | – | – | – |
| B2 | – | no compound-related off-target toxicity | + | ++ | ++ | ++ | binds dose-dependently | 176 | negative | 78 | 654 | 0.1 µg/mL | conferred cytotoxicity in an Fc-dependent manner | not to ICAM-2 or ICAM-3 |
